{
  "source": "patent US20240327460A1",
  "about": "“NORA INHIBITORS AND METHODS OF USE” (priority 2021, published 2024)",
  "molecules": {"B1": {"name": "Fab36 (Fab, V domains shown)", "VH": "EVQLVESGGGLVQPGGSLRLSCAASGFTFSSSSIHWVRQAPGKGLEWVASISSSSGSTSYADSVKGRFTISADTSKNTAYLQMNSLRAEDTAVYYCARYSRYYYYAWRVGGYWGGLDYWGQGTLVTVSS", "VL": "DIQMTQSPSSLSASVGDRVTITCRASQSVSSAVAWYQQKPGKAPKLLIYSASSLYSGVPSRFSGSRSGTDFTLTISSLQPEDFATYYCQQSSSSLITFGQGTKVEIKR", "notes": "also called N3-36"}, "B2": {"name": "Fab36^R134A (antibody, V domains shown)", "VH": "B1 VH with R108A", "VL": "DIQMTQSPSSLSASVGDRVTITCRASQSVSSAVAWYQQKPGKAPKLLIYSASSLYSGVPSRFSGSRSGTDFTLTISSLQPEDFATYYCQQSSSSLITFGQGTKVEIKRTV"}, "B3": {"name": "Fab36: synthetic antigen-binding fragment binding NorA; CDRH3 SEQ ID NO: 7; VH SEQ ID NO: 32, VL SEQ ID NO: 33 (antibody, V domains shown)", "VH": "B1 VH", "VL": "B2 VL", "modifications": "NorA Antibody N3-36, Heavy Chain Variable Region; NorA Antibody N3-36, Light Chain Variable Region"}, "B4": {"name": "Fab36^R134A (Fab, V domains shown)", "VH": "B1 VH with R108A", "VL": "B1 VL"}, "B5": {"name": "Fab36^W133A (Fab, V domains shown)", "VH": "B1 VH with W107A", "VL": "B1 VL"}, "B6": {"name": "Fab25: synthetic antigen-binding fragment binding NorA; CDRH3 SEQ ID NO: 6; VH SEQ ID NO: 30, VL SEQ ID NO: 31 (antibody, V domains shown)", "VH": "EVQLVESGGGLVQPGGSLRLSCAASGFTFSSSSIHWVRQAPGKGLEWVASISSSSGSTSYADSVKGRFTISADTSKNTAYLQMNSLRAEDTAVYYCARWETGYYPYWRMYGFYWALDYWGQGTLVTVSS", "VL": "B2 VL", "modifications": "NorA Antibody N3-25, Heavy Chain Variable Region; NorA Antibody N3-25, Light Chain Variable Region"}},
  "key": {"MRSA": {"tested_on": "MRSA", "assay_type": "cell-based, Staphylococcus aureus", "conditions": "12.5 μg/ml norfloxacin", "procedure": "To test the effects of peptides, overnight cultures of wild-type MRSA and MRSA^ΔnorA in TSB media were diluted 1:1,000 in TSB with varying concentrations of peptides, in the presence or the absence of norfloxacin (12.5 μg/ml). All the peptide concentrations contained equal amount of the DMSO vehicle. OD600nm was measured as a function of time in a BioScreen C device at 37° C. with shaking between measurements every 15 min. Three independent experiments were acquired; reported errors reflect the standard deviation among the independent experiments."}, "[1]": {"target": "T1, S. aureus NorA with a carboxy-terminal decahistidine tag, purified (Staphylococcus aureus, UniProt Q5HHX4 1-388)", "T1 sequence": "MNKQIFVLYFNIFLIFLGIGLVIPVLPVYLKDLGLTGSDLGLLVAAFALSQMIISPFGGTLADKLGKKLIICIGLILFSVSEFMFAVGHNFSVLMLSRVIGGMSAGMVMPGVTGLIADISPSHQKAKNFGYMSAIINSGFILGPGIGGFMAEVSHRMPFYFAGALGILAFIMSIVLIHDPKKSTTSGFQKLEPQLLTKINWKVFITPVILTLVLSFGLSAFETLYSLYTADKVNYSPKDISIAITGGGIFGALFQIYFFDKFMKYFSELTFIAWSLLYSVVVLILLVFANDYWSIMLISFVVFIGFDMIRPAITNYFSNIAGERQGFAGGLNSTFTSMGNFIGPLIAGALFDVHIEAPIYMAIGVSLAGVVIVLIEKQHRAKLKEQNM"}, "[2]": {"target": "T1, S. aureus NorA with a carboxy-terminal …", "assay": "MST"}, "NorA [3]": {"target": "T2, NorA (Staphylococcus aureus, UniProt Q5HHX4)", "T2 construct": "made in house; host or cells: C43 (DE3) E. coli", "T2 sequence (Q5HHX4 whole entry, looked up)": "T1 sequence", "assay": "Microscale thermophoresis (MST) binding of fluorescently labelled Fabs to NorA in PMAL-C8 amphipol", "design": "species or system S. aureus", "conditions": "labelled Fab 40 nM", "procedure": "Amphipol-purified NorA underwent an additional round of SEC to remove free amphipol. Purified Fabs were prepared as described above and labelled with a primary amine-reactive 647 nm fluorophore (Nanotemper) according to the manufacturer's instructions. Efficient labelling was verified spectroscopically by measuring absorbance at 280 and 650 nm. Microscale thermophoresis (MST) experiments were performed on a Monolith NT.115 Pico instrument (Nanotemper Technologies). Labelled Fab at 40 nM final concentration was mixed with NorA in 20 mM Tris pH 7.0, 100 mM NaCl, and 0.025% (w/v) Tween-20. All samples were incubated for 15 min and loaded into premium glass capillaries. The normalized fluorescent signal (Fnorm) was plotted as a function of ligand concentration and fit with a non-linear sigmoidal regression model (GraphPad Prism) using a Hill slope equal to 1.0 to obtain the Kd values. The error in Kd values for Fab25 (1.2±0.7 μM) and Fab36 (140±20 nM) represent the average and standard deviation of two independent runs with three replicates per independent run. The error range in the Kd value for Fab36^W133A (2 to 4 μM) corresponds to the 95% confidence interval of the non-linear fit. […] MST binding experiments with Fab36^W133A and Fab36^R134A were collected with three replicates each."}, "NorA [4]": {"target": "T2, NorA", "assay": "NorA pull-down from E. coli co-expressing NorA and Fabs, immunoblot", "assay_type": "binding, S. aureus", "conditions": "co-expression with 0.2% arabinose"}, "NorA [5]": {"target": "T2, NorA", "assay": "Inhibition of NorA by Fabs in E. coli (co-expression growth inhibition assay)", "assay_type": "cell-based, S. aureus", "conditions": "E. coli co-expressing NorA and Fab; for E. coli growth inhibition in the presence of norfloxacin: 1.2 μg/ml norfloxacin, arabinose-induced Fab, OD600nm; for E. coli growth inhibition in the absence of norfloxacin: no norfloxacin", "excerpt": "NorA was encoded in a pTrcHis2C plasmid (ampicillin resistance) with a C-terminal myc-tag (Yu et al., “NorA Functions as a Multidrug Efflux Protein in Both Cytoplasmic Membrane Vesicles and Reconstituted Proteoliposomes,” J Bacteriol 184:1370-1377 (2002), which is hereby incorporated by reference in its entirety), while Fabs were cloned in a pBAD33 plasmid (gentamicin resistance) (Jimenez et al., “Genetics and Proteomics of Aeromonas salmonicida Lipopolysaccharide Core Biosynthesis,” J Bacteriol 191:2228-2236 (2009), which is hereby incorporated by reference in its entirety) with a C-terminal Avi-tag on the heavy chain of the Fab. Competent Top10 E. coli were co-transformed with vectors containing NorA and Fabs (Fab25, Fab36, or Fabcontrol) and grown on LB agar plates infused with carbenicillin and gentamicin. For time dependent growth curves, a single colony from the transformation was inoculated into TBG media in the presence of carbenicillin and gentamicin. The culture was grown to saturation for ˜20 hr at 30° C. Cultures were diluted by 300-fold into fresh TBG media containing carbenicillin and gentamicin, norfloxacin (0 or 1.2 μg/ml), and arabinose (0%, 0.0001%, 0.0005%, 0.0025%, 0.01%, 0.05%, 0.1%, 0.2%, 0.4%, or 0.8%). OD600nm was measured as a function of time in a BioScreen Pro C device at 30° C. with shaking between measurements every 15 min. Four independent experiments were acquired with two technical replicates per experiment; reported errors reflect the standard deviation among the experiments. Immunoblot (IB) analyses were performed on E. coli lysates co-expressing NorA and Fabs following 24 hr of growth in TBG media in the absence of norfloxacin. Primary antibodies at 1:1,000 dilutions detected the C-terminal myc tag on NorA (Genscript) and the C-terminal Avi tag on the heavy chain of the Fab (Genscript). IB analyses were repeated two independent times.\nThe insertion of Fab CDRH3 loops into the substrate binding pocket of NorA, as observed in the cryo-EM structures, afforded the expectation that Fab binding would inhibit antibiotic efflux (FIGS. 1A-1D, 4G). […] Since NorA is located within the inner membrane and confers norfloxacin resistance to E. coli (FIG. 6D), growth inhibition was assessed by co-expressing Fabs in the periplasm to allow access to the extracellular face of NorA. Growth curves (OD600 nm vs. time) were quantified with or without norfloxacin and with variable concentrations of arabinose for inducing Fab expression."}, "[6]": {"target": "T1, S. aureus NorA with a carboxy-terminal …", "remark": "listed apart in the source"}, "[7]": {"target": "T1, S. aureus NorA with a carboxy-terminal …", "assay": "MST; range is the 95% confidence interval of the non-linear fit"}, "[8]": {"target": "T3, S. aureus NorA with a carboxy-terminal decahistidine tag, purified (Staphylococcus aureus), Q5HHX4", "T3 chain": "T1 sequence"}, "[9]": {"target": "T4, Native NorA of MRSA (USA300 strain JE2) (Staphylococcus aureus), Q5HHX4", "T4 chain": "T1 sequence", "assay": "cell-based or functional assay"}, "[10]": {"target": "T3, S. aureus NorA with a carboxy-terminal …"}},
  "note": "Changes are numbered by the printed parent chain. Names may count otherwise. Like-named read-outs stand apart in the source and are kept apart here.",
  "data": [
    {"molecule": "NH2-YYYYAWEVGGYWR-CONH2 (H-YYYYAWEVGGYWR-NH2) [NPI-2, control peptide substituting a glutamate for the arginine residue in the tryptophan-arginine motif, reference compound]", "values": [
      {"measurement": "growth arrest of MRSA in the presence of norfloxacin", "setting": "MRSA", "value": "displayed no growth arrest of MRSA"}
    ]},
    {"molecule": "B1", "values": [
      {"measurement": "Kd", "setting": "[1]", "value": 140, "unit": "nM"},
      {"measurement": "fold tighter binding affinity against Fab25", "setting": "[2]", "value": "~9", "unit": "fold"}
    ]},
    {"molecule": "B2", "values": [
      {"measurement": "Kd", "setting": "NorA [3]", "value": "> 14000", "unit": "nM"}
    ]},
    {"molecule": "B3", "values": [
      {"measurement": "Fab in elution fraction of purified NorA", "setting": "NorA [4]", "value": "contained the Fabs as detected through immunoblotting"},
      {"measurement": "E. coli growth inhibition in the presence of norfloxacin", "setting": "NorA [5]", "value": "strongly attenuated E. coli growth in an arabinose-dependent manner"},
      {"measurement": "E. coli growth inhibition in the absence of norfloxacin", "setting": "NorA [5]", "value": "no growth inhibition"}
    ]},
    {"molecule": "B4", "values": [
      {"measurement": "fold reduced binding affinity against Fab36", "setting": "[2]", "value": "> 100", "unit": "fold"}
    ]},
    {"molecule": "B5", "values": [
      {"measurement": "Kd", "setting": "[6]", "value": 2800, "unit": "nM"},
      {"measurement": "Kd", "setting": "[7]", "value": "2000 to 4000", "unit": "nM"},
      {"measurement": "fold reduced binding affinity against Fab36", "setting": "[2]", "value": "~20", "unit": "fold"}
    ]},
    {"molecule": "B6", "values": [
      {"measurement": "Kd", "setting": "NorA [3]", "value": "1200 ± 700", "unit": "nM"},
      {"measurement": "Fab in elution fraction of purified NorA", "setting": "NorA [4]", "value": "contained the Fabs as detected through immunoblotting"},
      {"measurement": "E. coli growth inhibition in the presence of norfloxacin", "setting": "NorA [5]", "value": "showed inhibition of NorA, albeit to a lesser extent than for Fab36"},
      {"measurement": "E. coli growth inhibition in the absence of norfloxacin", "setting": "NorA [5]", "value": "no growth inhibition"}
    ]},
    {"molecule": "H-YYYYAWRVGGYWR-NH2", "note": "[NPI-1 (NorA peptide inhibitor), NH2-…-CONH2]", "values": [
      {"measurement": "IC50 (read off the curve)", "setting": "[8]", "value": 7000, "unit": "nM"},
      {"measurement": "IC50 of dose-dependent growth inhibition of MRSA in the presence of norfloxacin (12.5 µg/ml), 10 hr timepoint", "setting": "[9]", "value": 720, "unit": "nM"},
      {"measurement": "EC50", "setting": "[10]", "value": 6290, "unit": "nM"}
    ]}
  ]
}
